Experimental data as given in US20220411483A1 (Chugai, published 2022).

T1: FcγRIIa R type extracellular domain, His tag (human, UniProt P12318 34-217)
T1 construct: extracellular domain; also called FcgRIIaR
T1 sequence (looked up): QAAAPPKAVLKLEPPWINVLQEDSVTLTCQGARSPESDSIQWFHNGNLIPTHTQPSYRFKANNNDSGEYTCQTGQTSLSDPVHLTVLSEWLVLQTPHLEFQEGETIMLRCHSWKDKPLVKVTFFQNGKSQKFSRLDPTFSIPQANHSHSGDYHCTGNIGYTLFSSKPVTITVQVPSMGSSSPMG

T2: FcγRIIa H type extracellular domain, His tag (human, UniProt P12318 34-217)
T2 construct: extracellular domain; also called FcgRIIaH
T2 sequence (looked up): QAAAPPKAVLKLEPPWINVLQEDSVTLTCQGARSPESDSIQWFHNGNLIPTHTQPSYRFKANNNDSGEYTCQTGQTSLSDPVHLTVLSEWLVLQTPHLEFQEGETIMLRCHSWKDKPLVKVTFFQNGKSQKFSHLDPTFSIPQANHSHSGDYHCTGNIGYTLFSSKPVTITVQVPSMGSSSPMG

T3: FcγRIIb extracellular domain, His tag (human, UniProt P31994 43-217)
T3 construct: extracellular domain; also called FcgRIIb
T3 sequence (looked up): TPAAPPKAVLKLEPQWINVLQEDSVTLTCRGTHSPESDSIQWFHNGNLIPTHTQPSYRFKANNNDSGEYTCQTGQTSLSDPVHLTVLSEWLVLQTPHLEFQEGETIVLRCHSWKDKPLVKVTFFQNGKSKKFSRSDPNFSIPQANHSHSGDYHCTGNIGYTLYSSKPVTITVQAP


Legend:
[1] = target: T4, FcγRIa extracellular domain, His tag (human, UniProt P12314 16-292); test: SPR, KD ratio
T4 construct: whole entry named; also called FcgRIa

[2] = target: T1, FcγRIIa R type extracellular domain, …; test: SPR, KD ratio
[3] = target: T2, FcγRIIa H type extracellular domain, …; test: SPR, KD ratio
[4] = target: T3, FcγRIIb extracellular domain, His tag; test: SPR, KD ratio
[5] = target: T5, FcγRIIIa V type extracellular domain, His tag (human, UniProt P08637 17-208); test: SPR, KD ratio
T5 construct: extracellular domain; also called FcgRIIIaV

[6] = target: T1, FcγRIIa R type extracellular domain, …; test: SPR, bound amount per captured antibody
[7] = target: T3, FcγRIIb extracellular domain, His tag; test: SPR, bound amount per captured antibody

T5 sequence (P08637 17-208 F176V): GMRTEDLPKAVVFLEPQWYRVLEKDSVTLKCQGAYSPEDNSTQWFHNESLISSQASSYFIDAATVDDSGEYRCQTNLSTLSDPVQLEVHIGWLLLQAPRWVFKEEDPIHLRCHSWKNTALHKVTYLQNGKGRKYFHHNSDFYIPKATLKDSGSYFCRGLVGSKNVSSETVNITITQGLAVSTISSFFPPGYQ
T4 sequence (P12314 16-292): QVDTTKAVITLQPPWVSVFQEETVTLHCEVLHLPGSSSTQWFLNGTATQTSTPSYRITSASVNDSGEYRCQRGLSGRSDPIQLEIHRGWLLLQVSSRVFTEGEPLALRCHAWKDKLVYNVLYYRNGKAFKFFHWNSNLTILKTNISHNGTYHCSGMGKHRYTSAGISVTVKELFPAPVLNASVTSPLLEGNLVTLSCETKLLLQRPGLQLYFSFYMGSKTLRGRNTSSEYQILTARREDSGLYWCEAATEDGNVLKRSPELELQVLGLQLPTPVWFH

Row | Binder | Relative FcgRIa-binding Activity [1] | Relative FcgRIIaR-binding Activity [2] | Relative FcgRIIaH-binding Activity [3] | Relative FcgRIIb-binding Activity [4] | Relative FcgRIIIaV-binding Activity [5] | Relative FcgRIIaR-binding Activity [6] | Relative FcgRIIb-binding Activity [7]
1 | IL6R-P660/IL6R-L (antibody, human IgG1, kappa) heavy: QVQLQESGPGLVKPSETLSLTCAVSGHSISHDHAWSWVRQPPGEGLEWIGFISYSGITNYNPSLQGRVTISRDNSKNTLYLQMNSLRAEDTAVYYCARSLARTTAMDYWGEGTLVTVSSASTKGPSVFPLAPSSKSTSGGTAALGCLVKDYFPEPVTVSWNSGALTSGVHTFPAVLQSSGLYSLSSVVTVPSSSLGTQTYICNVNHKPSNTKVDKKVEPKSCDKTHTCPPCPAPELLGGDSVFLFPPKPKDTLMISRTPEVTCVVVDVSHEDPEVKFNWYVDGVEVHNAKTKPREEQYNATYRVVSVLTVLHQDWLNGKEYKCKVNNKALPAPIEKTISKAKGQPREPQVYTLPPSRDELTKNQVSLTCLVKGFYPSDIAVEWESNGQPENNYKTTPPVLDSDGSFFLYSKLTVDKSRWQQGNVFSCSVMHEALHNHYTQKSLSLSP light: not shown | 0.0446 fold of IL6R-G1d/IL6R-L | 0.025 fold of IL6R-G1d/IL6R-L | 0.009 fold of IL6R-G1d/IL6R-L | 0.972 fold of IL6R-G1d/IL6R-L | 0.011 fold of IL6R-G1d/IL6R-L | 14.7 % of IL6R-G1d/IL6R-L | 100 % of IL6R-G1d/IL6R-L
2 | IL6R-P661/IL6R-L (antibody, human IgG1, kappa) heavy: QVQLQESGPGLVKPSETLSLTCAVSGHSISHDHAWSWVRQPPGEGLEWIGFISYSGITNYNPSLQGRVTISRDNSKNTLYLQMNSLRAEDTAVYYCARSLARTTAMDYWGEGTLVTVSSASTKGPSVFPLAPSSKSTSGGTAALGCLVKDYFPEPVTVSWNSGALTSGVHTFPAVLQSSGLYSLSSVVTVPSSSLGTQTYICNVNHKPSNTKVDKKVEPKSCDKTHTCPPCPAPELLGGDSVFLFPPKPKDTLMISRTPEVTCVVVDVSHEDPEVKFNWYVDGVEVHNAKTKPREEQYNATYRVVSVLTVLHQDWLNGKEYKCKVSNKALPHPIEKTISKAKGQPREPQVYTLPPSRDELTKNQVSLTCLVKGFYPSDIAVEWESNGQPENNYKTTPPVLDSDGSFFLYSKLTVDKSRWQQGNVFSCSVMHEALHNHYTQKSLSLSP light: not shown | 0.033 fold of IL6R-G1d/IL6R-L | 0.03 fold of IL6R-G1d/IL6R-L | 0.01 fold of IL6R-G1d/IL6R-L | 1.28 fold of IL6R-G1d/IL6R-L | 0.012 fold of IL6R-G1d/IL6R-L | 17.5 % of IL6R-G1d/IL6R-L | 109 % of IL6R-G1d/IL6R-L
3 | IL6R-P687/IL6R-L (antibody, human IgG1, kappa) heavy: QVQLQESGPGLVKPSETLSLTCAVSGHSISHDHAWSWVRQPPGEGLEWIGFISYSGITNYNPSLQGRVTISRDNSKNTLYLQMNSLRAEDTAVYYCARSLARTTAMDYWGEGTLVTVSSASTKGPSVFPLAPSSKSTSGGTAALGCLVKDYFPEPVTVSWNSGALTSGVHTFPAVLQSSGLYSLSSVVTVPSSSLGTQTYICNVNHKPSNTKVDKKVEPKSCDKTHTCPPCPAPELLGGDSVFLFPPKPKDTLMISRTPEVTCVVVDVSHEDPEVKFNWYVDGVEVHNAKTKPREEQYNATYRVVSVLTVLHQDWLNGKEYKCKVNNKALPHPIEKTISKAKGQPREPQVYTLPPSRDELTKNQVSLTCLVKGFYPSDIAVEWESNGQPENNYKTTPPVLDSDGSFFLYSKLTVDKSRWQQGNVFSCSVMHEALHNHYTQKSLSLSP light: not shown | 0.0471 fold of IL6R-G1d/IL6R-L | 0.02 fold of IL6R-G1d/IL6R-L | 0.007 fold of IL6R-G1d/IL6R-L | 1.01 fold of IL6R-G1d/IL6R-L | 0.008 fold of IL6R-G1d/IL6R-L | 12.6 % of IL6R-G1d/IL6R-L | 100 % of IL6R-G1d/IL6R-L

More lines, now with the values ahead:

Row | Relative FcgRIa-binding Activity [1] | Relative FcgRIIaR-binding Activity [2] | Relative FcgRIIaH-binding Activity [3] | Relative FcgRIIb-binding Activity [4] | Relative FcgRIIIaV-binding Activity [5] | Relative FcgRIIaR-binding Activity [6] | Relative FcgRIIb-binding Activity [7] | Binder
4 | 0.0118 fold of IL6R-G1d/IL6R-L | 0.016 fold of IL6R-G1d/IL6R-L | 0.008 fold of IL6R-G1d/IL6R-L | 1.09 fold of IL6R-G1d/IL6R-L | 0.007 fold of IL6R-G1d/IL6R-L | 10.1 % of IL6R-G1d/IL6R-L | 103 % of IL6R-G1d/IL6R-L | IL6R-P689/IL6R-L (antibody, human IgG1, kappa) heavy: QVQLQESGPGLVKPSETLSLTCAVSGHSISHDHAWSWVRQPPGEGLEWIGFISYSGITNYNPSLQGRVTISRDNSKNTLYLQMNSLRAEDTAVYYCARSLARTTAMDYWGEGTLVTVSSASTKGPSVFPLAPSSKSTSGGTAALGCLVKDYFPEPVTVSWNSGALTSGVHTFPAVLQSSGLYSLSSVVTVPSSSLGTQTYICNVNHKPSNTKVDKKVEPKSCDKTHTCPPCPAPELLGGDSVMLFPPKPKDTLMISRTPEVTCVVVDVSPEDPEVKFNWYVDGVEVHNAKTKPREEQENSTYRVVSVLTVLHQDWLNGKEYKCKVHNKALPAPIEKTISKAKGQPREPQVYTLPPSRDELTKNQVSLTCLVKGFYPSDIAVEWESNGQPENNYKTTPPVLDSDGSFFLYSKLTVDKSRWQQGNVFSCSVMHEALHNHYTQKSLSLSP light: not shown
5 | 0.0006 fold of IL6R-G1d/IL6R-L | 0.022 fold of IL6R-G1d/IL6R-L | 0.008 fold of IL6R-G1d/IL6R-L | 1.89 fold of IL6R-G1d/IL6R-L | 0.006 fold of IL6R-G1d/IL6R-L | 13.7 % of IL6R-G1d/IL6R-L | 127 % of IL6R-G1d/IL6R-L | IL6R-P692/IL6R-L (antibody, human IgG1, kappa) heavy: QVQLQESGPGLVKPSETLSLTCAVSGHSISHDHAWSWVRQPPGEGLEWIGFISYSGITNYNPSLQGRVTISRDNSKNTLYLQMNSLRAEDTAVYYCARSLARTTAMDYWGEGTLVTVSSASTKGPSVFPLAPSSKSTSGGTAALGCLVKDYFPEPVTVSWNSGALTSGVHTFPAVLQSSGLYSLSSVVTVPSSSLGTQTYICNVNHKPSNTKVDKKVEPKSCDKTHTCPPCPAPELFGQDSVMLFPPKPKDTLMISRTPEVTCVVVDVSHEDPEVKFNWYVDGVEVHNAKTKPREEQENSTYRVVSVLTVLHQDWLNGKEYKCKVSNKALPHPIEKTISKAKGQPREPQVYTLPPSRDELTKNQVSLTCLVKGFYPSDIAVEWESNGQPENNYKTTPPVLDSDGSFFLYSKLTVDKSRWQQGNVFSCSVMHEALHNHYTQKSLSLSP light: not shown
6 | 0.0011 fold of IL6R-G1d/IL6R-L | 0.017 fold of IL6R-G1d/IL6R-L | 0.007 fold of IL6R-G1d/IL6R-L | 1.28 fold of IL6R-G1d/IL6R-L | 0.005 fold of IL6R-G1d/IL6R-L | 10.5 % of IL6R-G1d/IL6R-L | 102 % of IL6R-G1d/IL6R-L | IL6R-P690/IL6R-L (antibody, human IgG1, kappa) heavy: QVQLQESGPGLVKPSETLSLTCAVSGHSISHDHAWSWVRQPPGEGLEWIGFISYSGITNYNPSLQGRVTISRDNSKNTLYLQMNSLRAEDTAVYYCARSLARTTAMDYWGEGTLVTVSSASTKGPSVFPLAPSSKSTSGGTAALGCLVKDYFPEPVTVSWNSGALTSGVHTFPAVLQSSGLYSLSSVVTVPSSSLGTQTYICNVNHKPSNTKVDKKVEPKSCDKTHTCPPCPAPELLGQDSVMLFPPKPKDTLMISRTPEVTCVVVDVSHEDPEVKFNWYVDGVEVHNAKTKPREEQENSTYRVVSVLTVLHQDWLNGKEYKCKVSNKALPHPIEKTISKAKGQPREPQVYTLPPSRDELTKNQVSLTCLVKGFYPSDIAVEWESNGQPENNYKTTPPVLDSDGSFFLYSKLTVDKSRWQQGNVFSCSVMHEALHNHYTQKSLSLSP light: not shown
7 | 0.0423 fold of IL6R-G1d/IL6R-L | 0.018 fold of IL6R-G1d/IL6R-L | 0.006 fold of IL6R-G1d/IL6R-L | 0.918 fold of IL6R-G1d/IL6R-L | 0.008 fold of IL6R-G1d/IL6R-L | 11.4 % of IL6R-G1d/IL6R-L | 87.9 % of IL6R-G1d/IL6R-L | IL6R-P693/IL6R-L (antibody, human IgG1, kappa) heavy: QVQLQESGPGLVKPSETLSLTCAVSGHSISHDHAWSWVRQPPGEGLEWIGFISYSGITNYNPSLQGRVTISRDNSKNTLYLQMNSLRAEDTAVYYCARSLARTTAMDYWGEGTLVTVSSASTKGPSVFPLAPSSKSTSGGTAALGCLVKDYFPEPVTVSWNSGALTSGVHTFPAVLQSSGLYSLSSVVTVPSSSLGTQTYICNVNHKPSNTKVDKKVEPKSCDKTHTCPPCPAPELLGGDSVFLFPPKPKDTLMISRTPEVTCVVVDVSHEDPEVKFNWYVDGVEVHNAKTKPREEQENATYRVVSVLTVLHQDWLNGKEYKCKVSNKALPAPIEKTISKAKGQPREPQVYTLPPSRDELTKNQVSLTCLVKGFYPSDIAVEWESNGQPENNYKTTPPVLDSDGSFFLYSKLTVDKSRWQQGNVFSCSVMHEALHNHYTQKSLSLSP light: not shown
8 | 0.0004 fold of IL6R-G1d/IL6R-L | 0.017 fold of IL6R-G1d/IL6R-L | 0.007 fold of IL6R-G1d/IL6R-L | 1.19 fold of IL6R-G1d/IL6R-L | 0.007 fold of IL6R-G1d/IL6R-L | 10.7 % of IL6R-G1d/IL6R-L | 104 % of IL6R-G1d/IL6R-L | IL6R-P691/IL6R-L (antibody, human IgG1, kappa) heavy: QVQLQESGPGLVKPSETLSLTCAVSGHSISHDHAWSWVRQPPGEGLEWIGFISYSGITNYNPSLQGRVTISRDNSKNTLYLQMNSLRAEDTAVYYCARSLARTTAMDYWGEGTLVTVSSASTKGPSVFPLAPSSKSTSGGTAALGCLVKDYFPEPVTVSWNSGALTSGVHTFPAVLQSSGLYSLSSVVTVPSSSLGTQTYICNVNHKPSNTKVDKKVEPKSCDKTHTCPPCPAPELFGQDSVMLFPPKPKDTLMISRTPEVTCVVVDVSHEDPEVKFNWYVDGVEVHNAKTKPREEQENSTYRVVSVLTVLHQDWLNGKEYKCKVSNKALPAPIEKTISKAKGQPREPQVYTLPPSRDELTKNQVSLTCLVKGFYPSDIAVEWESNGQPENNYKTTPPVLDSDGSFFLYSKLTVDKSRWQQGNVFSCSVMHEALHNHYTQKSLSLSP light: not shown
